Data: US20150024459A1

What was measured:
[1] = biological target: IGF-1R and EGP-1 together on MCF-7, DU145 or ME-180 cells (human) (UniProt P08069); experiment: flow cytometry (FACScan), ME-180 cells; control
[2] = biological target: IGF-1R and EGP-1 together on MCF-7, DU145 or ME-180 cells (human) (UniProt P08069); experiment: flow cytometry (FACScan), DU145 cells; control
[3] = biological target: IGF-1R and EGP-1 together on MCF-7, DU145 or ME-180 cells (human) (UniProt P08069); experiment: flow cytometry (FACScan), MCF-7 cells; control
[4] = biological target: IGF-1R on human cancer cell lines (human) (UniProt P08069); experiment: 125I-IGF-1 binding to MCF-7L cells; antibody at 1000 ng/mL
[5] = biological target: IGF-1R on human cancer cell lines (human) (UniProt P08069); experiment: 125I-IGF-1 binding to MCF-7L cells; antibody at 100 ng/mL
[6] = biological target: IGF-1R on human cancer cell lines (human) (UniProt P08069); experiment: cell-based or functional assay

% Positive [1] [%] | MFI [1] | % Positive [2] [%] | MFI [2] | % Positive [3] [%] | MFI [3] | % binding of 125I-IGF-1 in the presence of the antibody [4] [%] | % binding of 125I-IGF-1 in the presence of the antibody [5] [%] | maximum growth inhibition, 786-O cells, serum-free with IGF-1 100 ng/mL, MTS, antibody 8 nM [6] [%] | maximum growth inhibition, ACHN cells, serum-free with IGF-1 100 ng/mL, MTS, antibody 200 nM [6] [%] | maximum growth inhibition, Caki-2 cells, serum-free with IGF-1 100 ng/mL, MTS, antibody 8 nM [6] [%] | Substance
1.37 | 1.8 | 1.44 | 2.21 | 2.34 | 1.84 | – | – | – | – | – | human IgG (antibody)
– | – | – | – | – | – | 38 | 54 | 34 | 48 | 50 | MAB391 (antibody)
